The test deals with T1, non-cleaved SNAP-25206 (UniProt P60880 1-206).
T1 construct: range 1-206; also called SNAP-25206 uncleaved substrate
Briefly: ELISA and Western blots.

T1 sequence (P60880 whole entry): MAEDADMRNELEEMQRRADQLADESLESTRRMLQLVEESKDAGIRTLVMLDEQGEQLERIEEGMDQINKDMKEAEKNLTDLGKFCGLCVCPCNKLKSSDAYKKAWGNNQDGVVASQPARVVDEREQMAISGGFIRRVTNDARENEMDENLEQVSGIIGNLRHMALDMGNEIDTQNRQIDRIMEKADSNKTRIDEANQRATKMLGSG

B1: mouse monoclonal antibody produced by hybridoma pCNEI 32-7-1, 3614-000 (antibody, V domains shown)
VH: EVQLVESGGGLVQPKGSLKLSCAASGYTFNTYAVNWVRQAPGKGLEWVARIRSKSYNYVTYYADSVKDRFTISRDDSQSMLYLQMNNLKTEDTAMYYCVKGNGNYVSFAYWGQGTLVTVSA
VL: QLVLTQSSSASFSLGASAKLTCTLSSQHNTYTIEWYQQQPLKPPKYVMELKKDGSHSTGDGIPDRFSGSSSGADRYLSISNIQPEDEAIYICGVGDTIKEQFVYVFGGGTKVTVL
notes: also called monoclonal antibody of the invention; DSM ACC3261
As for B1, the binding result was “no binding”.

Source of the values: patent US20190023771A1 (MERZ PHARMA, published 2019).
